Read-outs that look alike come from different tables or passages of the source.
Tests used:
[1] = biological target: Human VEGFR-1 D1-7 (residues 1-750), full-length extracellular domain (human) (UniProt P17948); test: ITC
[2] = biological target: Human VEGFR-1 D1-3 (residues 1-339) (human) (UniProt P17948); test: ITC
[3] = biological target: Human VEGFR-1 D1-7 (residues 1-750), full-length extracellular domain (human) (UniProt P17948); test: SEC-MALS
[4] = biological target: Human VEGFR-1 D1-6 (residues 1-660) (human) (UniProt P17948); test: crystal structure
[5] = biological target: Human VEGFR-1 D2-7 (residues 132-750) (human) (UniProt P17948); test: crystal structure

Kd ([1]; ligand) [nM] | Kd [2] [nM] | Kd [1] [nM] | stoichiometry N [3] | stoichiometry N [4] | stoichiometry N [5] | Substance
1.7 | – | – | – | – | – | Human VEGF-A121
– | 50 | 2 | 1 | 1 | 1 | Human VEGF-A121 (ligand)
